The nanobody polyreactivity screen of Harvey et al. (2022)

Assay: yeast display, Sf9 membrane polyspecificity reagent, FACS + sequencing; frameworks hold sequencing errors
In short: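 Galactose induction of a Saccharomyces cerevisiae BJ5465 synthetic nanobody display library ran 36–48 hours. The cells were then stained for 1 hour at 4 °C with 10% biotinylated, detergent-solubilized Sf9 membrane reagent, pulled down on streptavidin microbeads and FACS-sorted into low and high (top ~1%) gates on expression and reagent-binding fluorescence. Labels for polyreactivity follow the gate of origin.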

Sequence	polyreactivity (PSR sort gate)
QVQLVESGGGLVQAGGSLRLSCAASGITFGAYTMGWYRQAPGKERELVAAISGSGGSTYYADSVKGRFTISRDNAKNTVYLQMNSLKPEDTAVTYCNKVLSPHLGCSFDYWGQGTEVTVSS	high polyreactivity
QVQLVESGGGLVQAGGSLRLSCAASGITFGDYAMVWYRQAPGKERELVAAITSGGSTYYADSVKGRCTISRDNAKNTVYLQMNILKPEDTAVYYCNRQYNQWIHYYYRMDYWGQGTQVTVSS	high polyreactivity
QVQLVESGGGLVQAGGSLRLSCAASGITFGDYAMVWYRQAPGKERELVAGINWSGDGTYYADSLKGRFTISRDKAKNTVYLQMNSLKPEDSAVYYCAAETFYDYGGYDYWGQGTQVTVSS	low polyreactivity
QVQLVESGGGLVQAGGSLRLSCAASGITFGDYTMGWYRQAPGKERELVAVISSGGNTNYADSVKGRFTISRDNAKNTVYLQMNSLKPEDTAVYYCAAVIASYGTRYRGGYTRYYYWGQGTQVTVSS	high polyreactivity
QVQLVESGGGLVQAGGSLRLSCAASGITFGHYAMGWYRQAPGKERQLVAGINWSGDGRYYADSVKGRFTISRDNAKNTVYLQMNSLKPEDTAVYYCDAETFYDYGGYDYWGQGTQVTVSS	low polyreactivity
QVQLVESGGGLVQAGGSLRLSCAASGITFGHYTMGWYRQAPGKEWDLVAAISWSGGSTYYADSVKGRFTISRDNAKYTVYLQMNSLKPEDTAVYYCNRVKRVIASYDSDYWGQGTQVTVSS	low polyreactivity
QVQLVESGGGLVQAGGSLRLSCAASGITFGIYAMGWYRQAPGKERELVAAIDGSDGSTYYADSVKGRFTISRDNAKNTVYLQMKSLKPEDTAVYYCNAENGYSWDVFSDYWGQGTQVTVSS	low polyreactivity
QVQLVESGGGLVQAGGSLRLSCAASGITFGIYVMGWYRPAPGKEWELVATISRSDDNTYYADSVKGRFTISRDNAKNTVYLQMNSLKPEDTAVYYCAAYWYDLYWDYYTFDYWGQGTQVTVSS	low polyreactivity
QVQLVESGGGLVQAGGSLRLSCAASGITFGKNAMGWYRQAPGKERELVATIRRSGGSTYADSVKGRFTISRDNAKNTVYLQMNSLKPEDTAVYYCNARSWNTYNYWGQGTQVTVSS	high polyreactivity
QVQLVESGGGLVQAGGSLRLSCAASGITFGNYAMGWYRQAPGKERELVAAITGSGGRTYYADSVKGRFTISRDNAKNTVYLQMNSLKPEDTAVYYCNRRQYGRKKQYDYWGQGTQVTVSS	high polyreactivity
QVQLVESGGGLVQAGGSLRLSCAASGITFGPNAMGWYRQAPGKERELVAAISWRGGSTYYADSVKGRFTISRDNAKNTVYLQMNSLKPEDTAVYYCAKVQIPASYIRYDYWGQGTQVTVSS	low polyreactivity
QVQLVESGGGLVQAGGSLRLSCAASGITFGPYAMGWYRQAPGKERELVAAISAGGGSTYYADSVKGRFTISRDNAKNTVYLQMNSLKPEDTAVYYCAAYLLHHYGGPEYYYWGQGTQVTVSS	high polyreactivity
QVQLVESGGGLVQAGGSLRLSCAASGITFGPYAMGWYRQAPGKERELVAAISYSGGRTYYADSVKGRFTISRDNAKNTVYLQMNSLKPEDTAVYFCARRYGYFGYEYDYWGQGTQVTVSS	high polyreactivity
QVQLVESGGGLVQAGGSLRLSCAASGITFGRHTMGWYRQAPGKERELVAAIDSGGNTYADSVKGRFTISRDNAKNTVYLQMNSLKPEDTAVYYCAVDGGEFSSYGYWGQGTQVTVSS	low polyreactivity
QVQLVESGGGLVQAGGSLRLSCAASGITFGRNAMGWYRQAPGKERELVAAISRGGSTNYADSVKGRFTISRDNAKNTVYLQMNSLKPEDTAVYYGNARSWPHGSWIPIHRRSGYWGQGTQVTVSS	high polyreactivity
QVQLVESGGGLVQAGGSLRLSCAASGITFGRNTMGWYRQAPGKERELVAAIDSGGNTYADSVKGRFTISRDNAKNTVYLQMNSLKPEDTAVYYCAVDGGEFSSSGYWGQGTQVPVSS	low polyreactivity
QVQLVESGGGLVQAGGSLRLSCAASGITFGRNTMGWYRQAPGKERELVAAIDSGGNTYADSVKGRFTISRDNEKNTVYLQMNSLKPEDTAVYYCAVDCGEFSSYGYWGQGTQVTVSS	low polyreactivity
QVQLVESGGGLVQAGGSLRLSCAASGITFGRYAMGWYRQAPGKERELVAAITWSGGSTYYADSVKGRFTISRDNSKNTVYLQMNSLKPEDTAVYYCAATWYPGRAGYYYWGQGTQVTVSS	high polyreactivity
QVQLVESGGGLVQAGGSLRLSCAASGITFGSYAMGRYRQAPGKERELVAAIDTSGDDTYYADSVKGRFTISRDNAKNTVYLQMNSLKPEDTAVYYCAAEFPSAEVDYWGQGTQVTVSS	low polyreactivity
QVQLVESGGGLVQAGGSLRLSCAASGITFGSYAMGWYRQAPGKEREFVAAISLSGGNTYYADSEKGRFTISRDNAKNPVYLQMNSLKPEDTAVYYCAADPFSSYYKMEYWGQGTQVTVSS	high polyreactivity
QVQLVESGGGLVQAGGSLRLSCAASGITFGSYDMGWYRQAPGKERELVAAIDSDGGTYYADSVKGRFTISRDNAKNTVYLQMNSLKPEDTAVYYCAALLRSFPPYSFYYWGQGTQVTVSS	high polyreactivity
QVQLVESGGGLVQAGGSLRLSCAASGITFGTYTMGWYRQAPGKERELVAAISRSGTGTYYADSVKGRFTISRDNAKNTVYLQMNSLKPEDTAVYYCAAAGYIYYGYEYLYGFEYWGQGTQVTVSS	high polyreactivity

Sequence	polyreactivity (PSR sort gate)
QVQLVESGGGLVQAGGSLRLSCAASGITFGVYAMGWYRQAPGKERELVAAISSGDSTYYADSVKGRFTISRDNAKNTVYLQMNSLKPEDTAVYYCNAYYGVFYWDAEYGYDYWGQGTQVTVSS	high polyreactivity
QVQLVESGGGLVQAGGSLRLSCAASGITFGWYAMGWYRQAPGKERELVAAISGRGGRTYYADSVKGRFKISRDNAKNTVYLQMNSLKPEDTAVYYCAARARRWSYITGSYVLIEYEYWGQGTQVTVSS	high polyreactivity
QVQLVESGGGLVQAGGSLRLSCAASGITFGWYAMGWYRQAPGKERELVAAISGRGGRTYYADSVKGRFTISRDNAKYTVYLQMNSLKPEVTAVYYCAARARRWSYITGSYVLIEYEYWGQGTQVTVSS	high polyreactivity
QVQLVESGGGLVQAGGSLRLSCAASGITFGYNAMGWYRQAPGKERELVASISYSGDSTYYADSVKGRFTISRDNAKNTVYLQMNSLKPEDTAVYYCNVRNRPGGEINDYDYWGQGTQVTVSS	low polyreactivity
QVQLVESGGGLVQAGGSLRLSCAASGITFGYNAMGWYRQAPGTEREFVAGISWSGGSTYYADSVKGRFTISRDNAKNTVYLQMNSLKPEDTAVYYCAKLARGGWYGGGRSLSYGYWGQGTQVTVSS	high polyreactivity
QVQLVESGGGLVQAGGSLRLSCAASGITFGYYAMGWYRQAPGKEREMVAAISFTGASTYYADSVKGRFTISRDNAKNTVYLQMNSLKPEDTAVYYCAADPYVPYQDFLSGFDYWGQGTQVTVSS	low polyreactivity
QVQLVESGGGLVQAGGSLRLSCAASGITFGYYDMGWYRQAPGKERELVASISSGGNTNYADSVKGRFTISRDNAKNTVYLQMNSLKPEDTAVYYCNVRYWGFYDYDYWGQGTQVTVSS	low polyreactivity
QVQLVESGGGLVQAGGSLRLSCAASGITFHKYAMGWYRQAPGKERELVAAISSGGGTYYADSVKGRFTISRDNAKNTVYLQMNSLKPEDTAVYYCNADIEWLWVRYDYWGQGTQVTVSS	high polyreactivity
QVQLVESGGGLVQAGGSLRLSCAASGITFIGYPMGWYRQAPGKERELVASITSGANTNYADSVKGRFTISRDNAKNTVYLQMNSLKPEDTAVYYCAAPEHGTYANILGEPLDYWGQGTQVTVSS	low polyreactivity
QVQLVESGGGLVQAGGSLRLSCAASGITFIKNAMGWYRQAPGKERELVAAISRSGGRTYYADSVKGRFTISRDNAKNTVYLQMNSLKPEYTAVYYCAAVTQRSYIYDYWGQGTQVTVSS	high polyreactivity
QVQLVESGGGLVQAGGSLRLSCAASGITFIRNGMGWYRQAPGKERELVAAISYTGARTYYADSVKGRFTISRDNAKNTVYLQMNSLKPEDNAVYYCAAEVRTRYLYSFRWYDYWGEGTQVTVSS	low polyreactivity
QVQLVESGGGLVQAGGSLRLSCAASGITFISYVMGWYRQAPWKERELLAAISKRGGSTYYADSVKGRFTISRDNAKNTVYLQMNSLKPEDTAVYYCAAKTIPWSVGYDYWGQGTQVTVSS	high polyreactivity
QVQLVESGGGLVQAGGSLRLSCAASGITFKFYAMGWYRQAPGKEREWVATISWSGGITYYADSVKGRFTISRDNAKNTVYLQMNSLKPEDTAVYYCAADGPFTPRYYYWGQGTQVTVSS	low polyreactivity
QVQLVESGGGLVQAGGSLRLSCAASGITFKGYTMGWYRQAPGKEREFVAAISWGGGRTYYADSVKGRFTISRDNAKNTVYLQMNSLKPEDTAVYYCNGAPYTRALQGEFDYWGQGTQVTVSS	high polyreactivity
QVQLVESGGGLVQAGGSLRLSCAASGITFKLNAMGWYRQAPGKERELVAAISYNGVRTYYADSVKGRFTISRDNAKNTVYLQMNRLKPEDTAVYYCAALLRGQDRTMDYWGQGTQVTVSS	high polyreactivity
QVQLVESGGGLVQAGGSLRLSCAASGITFKRYAMGWYRPAPGKERELVAAITISAGSTYYADSVKGRFTLSRDNAKNTVYLQMNSLKPEDTAVYYCAAESYGSWYYYWGQGTQVTVSS	high polyreactivity
QVQLVESGGGLVQAGGSLRLSCAASGITFKSYAMGWYRQAPGKERELVAAISRRGGSTYDADSVKGRFTISRDNAKNTVYLQMNSLKPEDTAVYYCNAAVGYYSYSYYTKVGVDYLGQGTQVTVSS	high polyreactivity
QVQLVESGGGLVQAGGSLRLSCAASGITFKYAMGWYRQAPGKERELVAAISGGGRTNYADSVKGRFTISRDNAKNTVYLQMNSLKPEDTAVYYCAAQGSRWWGFDYWGQGTQVTVSS	high polyreactivity
QVQLVESGGGLVQAGGSLRLSCAASGITFKYYAMGWYRQAPGKEREFVASISARGGGTYYADSVKGRFTISRDNAKNTVYLQMNSLKPEDTAVYYCAVDYRYGYFVYVHYEYWGQGTQVTVSS	high polyreactivity
QVQLVESGGGLVQAGGSLRLSCAASGITFLDYAMRWYRQAPGKERELVAAITKSVGSTYYADSVKGRFTISRDNAKNTVYLQMNSLKPEDTAVYYCAADPDSGQVPFDYWGQGTQVTVSS	low polyreactivity
QVQLVESGGGLVQAGGSLRLSCAASGITFLWNARGWYRQAPGKERELVAVISIGGSTYYADSVKGRFTISRDNAKNTVYLQMNSLKPEDTAVYYCAATEGPAYDYEYWGQGTQVTVSS	low polyreactivity
